Drawing on patent publication US5543308, this text covers activity (units/g cells) for one substance.

Series [1] concerns FseI restriction endonuclease (from pRMFseR1, NEB#918, His at position 2) T2H (Frankia species NRRL 18528). Kind of series: cleavage_in_vitro. The settings on record: crude extract, NEBuffer 1, 30 C, 1 h; estimated titer.
Series [2] concerns FseI restriction endonuclease (from pRMFseR2, NEB#943, ATCC 69707) (Frankia species NRRL 18528). The experiment in a line: cleavage_in_vitro. The settings on record: crude extract; estimated titer; substrate inferred from section 7.

With Adenovirus-2 DNA, the activity (units/g cells) in series [1] and in series [2] was > 10000 each time.
